Columns and labels:
[1] = test system: T1, Biosyn#1 (cov19) Dabcyl-TSAVLQSGFRK-EDANS
T1 sequence: TSAVLQSGFRK

[2] = test system: T2, Biosyn#6 (229e) Dabcyl-YGSTLQAGLRK-EDANS
T2 sequence: YGSTLQAGLRK

[3] = test system: Biosyn#7 (HRV) Dabcyl-LEALFQGP[Asp-(EDANS) SQ [Amide]

Human Rhinovirus (HRV) 3C protease
% Enz activity: 1%
Enzymatic activity, Slope; 5 uM substrate, 150 ng/reaction enzyme: 87 RFU/min
enzymatic activity, in words: Complete specificity (no cross reactivity) was observed for the most abundant common cold virus, HRV.
% Enz activity [1]: -1%
Enzymatic activity, Slope; 5 uM substrate, 150 ng/reaction enzyme [1]: -12 RFU/min
enzymatic activity, in words [1]: Complete specificity (no cross reactivity) was observed for the most abundant common cold virus, HRV.
% Enz activity [2]: -7%
Enzymatic activity, Slope; 5 uM substrate, 150 ng/reaction enzyme [2]: 44 RFU/min
enzymatic activity, in words [2]: Complete specificity (no cross reactivity) was observed for the most abundant common cold virus, HRV.
% Enz activity [3]: 100%
Enzymatic activity, Slope; 5 uM substrate, 150 ng/reaction enzyme [3]: 1040 RFU/min
enzymatic activity, in words [3]: The Biosyn #7 substrate was specific for HRV.
